Measured values published in the DeepSol protein solubility set.

test: soluble on expression in E. coli; label from the status in PepcDB or PDB records

Row | Sequence | soluble on expression in E. coli
1 | MSLHWLFGDQLGPHFLTPGEEGPGPETPLLMIEARSVFRRRRFHRAKAHLVLSAMRHRAAEPGDRVTYVRADTYRQGLARTARGRPVGVHHPTSHAALRLVRALPQVTVGPARGFLVPMTGFAAWAEGHGGKRLRQEDFYRWVRRGHGLLMDGEQPAAGRWNLDHDNREPPPREAASLQVGRPYRPREDDIDEEVRHDLDRWERDGDVSFVGRDGPRLFEGHHHHHH | soluble
2 | MVLLSFDIEEFDVPLEQGYKDFPSEEQLRISRQGTEAILHILRKKGVRSTFFSTVTFWESLPEDLRKGIYTDGHELASHGVFHSSFSKEHLAESRQKLASLWDGTDVCGFRMPRMMPVGDAEIAEAGYLYNSSLNPTCIPGRYNHLSAPRLPYFDKYGVLQMPSSVTPLLRFPLFWLSLHHLPLRLYIRMIRHTVRRDNYLNLYFHPWEFAEISCLPDCKLSYTVTHNSGEKMCRRLEAVIDTLLADGCSFGTFSDYYRFQKQG | not soluble
3 | RNHWVSQYSSVKQEKNEKWQRHWREILGEDTEDLPPYRYDYGLYSGIWQANETLREQCFAALTHGNSVYERVKAFQKMTTHEHNTDDQILLSKLAQLENEIIQALEQHSQKNVSIETGSGTLCKESKHNVYRHENGPTEEQLYNSINLQHDLDRELRNIIYDRLGDDGLDEYFFLRAPLEELTENETAINWMLWGLVSDHFDVDPYQTALELNLMNAEPRWGQDERFVVVTTAA | not soluble
4 | MNIKRITTEADLHEALKIRRGVFIEEQHVSEADEFDEFDTLQEQCQHILVYHENQPVGTGRARIVGHTAKLERICILKPYRKYGLGKIIVSGLEEIMKEKGLTSYKLHGQTQAAGFYQKLGYQISSQEFMEDGIPHVLMTKEISRNITLEHHHHHH | not soluble
5 | MARYSLHAGHNSIVQGANYGNRKEHIMDRQVKDAVVAKLRALGHTVYDDTDEVGTTQAQNLNNIVSKTNSHDVDLVVSFHLNSYDTRANGVEVLYYDQQALSAKIAAQLSKDIGWSNRGAKERKDLYVLSNTKAPAILIELGFIDNEADMAKWNPDKIANSIVYALTGQSGGTTPPSKQNIIQSGAFSPYETPDVMGALTSLKMTANFILQSDGLTYFISEPTSDAQLKGMTDYLDRRGWWYEVK | not soluble
6 | MGSDKIHHHHHHMTPSNVNSAGYKVIKISEFLSKKEYLDKKLVIPVYQRPYRWTAKNIVDLLSDLYYQCKRIGHRLGSPDNPDNFYRLGTVVLHQYVNNGSHQTNADLVDGQQRTLTLLLIMKSALESNRFTEQFNSFTPLEIELPDCSETQQNLSRNYELIRRHVNSPEFTSEVLDFLLNHCEVVQVTLHYLSEAFQFFDSQNARGLDLNPHDLLKAFHLREFPDSESLLKQNIVECWEQQNTKSLEVLFANYLYPIRRWSFGKQAVHFSKSEVNVFKGMKLDSDSYPFQENLRIVHNTVDSYNHHSHRLLDQQAMAYPFQLTQTLINGRRFFEWVTHYQEMIQPLLNKTIDSDSQKWLYTITSCHHTETGTSIKEVAKRPTAFNIFLVLNTDLPEYSYKGRSRRGDQYVRRMFDALVLCYYDRFGSHNLPRAIEYIFIWAYSLRLEKKSVYLESIEKHIGTDNLFERLQQSLSSVDFLSKPLPQPKKVDVTNVEGIKELFTKLGYLPT | not soluble
7 | FDKLGNSAAIQEMNREVEAAAKRTSPVFLTGEAGSPFETVARYFHKNGTPWVSPARVEYLIDMPMELLQKAEGGVLYVGDIAQYSRNIQTGITFIIGKAERCRVRVIASCSYAAGSDGISCEEKLAGLFSESVVRIPPLS | soluble
8 | MRITIYTRNDCVQCHATKRAMENRGFDFEMINVDRVPEAAEALRAQGFRQLPVVIAGDLSWSGFRPDMINRLHPAPHAASA | soluble
9 | GSFIDIEFPEWFHEGLSRHQAENLLMGKDIGFFIIRASQSSPGDFSISVRHEDDVQHFKVMRDTKGNYFLWTEKFPSLNKLVDYYRTTSISKQKQVFLRD | soluble
10 | MGHHHHHHSHMASPSKAVIVPGNGGGDVTTHGWYGWVKKELEKIPGFQCLAKNMPDPITARESIWLPFMETELHCDEKTIIIGHSSGAIAAMRYAETHRVYAIVLVSAYTSDLGDENERASGYFTRPWQWEKIKANCPYIVQFGSTDDPFLPWKEQQEVADRLETKLHKFTDCGHFQNTEFHELITVVKSLLKVPA | not soluble
11 | MSLSRLILIESNKNTRGTPWISIPVRNGVFEYDFYTDHEKAYELICWDDLLNGCWYPVTFFAENGTVSFTISAIDARPPYRIETLNSLTTALRLFEAEGKDKFSFDELNARRDTLEKYGRFESEAMQALWKKFDQVKDNPEERNKLFRERDRLEESGEAFTKEAKALIKEREQLFRKKVIWETEQASQHPSLVGLFILKMKVENARKDEDVTPYLEAFQKVYASRYPEHPYTREMQMFIDNNQPKTGNRFIDFSAPDLNGNMVQLSEQIRGKVALIDLWASWCGPCRTTSKQLIPIYEKYKDRGFTVIGVAREQNSDIRMREAIRKDGYPWLNLIELNDVQQIWSKYRIPNAAGGTFLVNAQGIILAVNPTAEEVERILQKELEGHHHHHH | not soluble
12 | MTTGVRRRMGVEERRQQLIGVALDLFSRRSPDEVSIDEIASAAGISRPLVYHYFPGKLSLYEAALQRASDDLADRFVEPRQGPLGARLLRVMGRYFDFVDEHGPGFSALMRGGPAVGSTTTNALVDSVRQAAYVQILSHLDVTEPPARLELVVRSWISLAESTALLWLDGRRIPRAELETQLVHDFAALMAVSAAYDEEMGALVRRVLADEPEDGPFGDLVDRLLALSAR | soluble
13 | SENVPFASKERADIFSMRTLIDFGGIAILHAYQSRISEYIAEKELSAMNVILKSQYDQYRNYQDSLDLIQMKYHDLKHQITALRAESDAEKRKKWIDAMEEEVSAFENMSKTGNQVLDTILAAKIFHCRKNHIQITCVADGKLLDFIHVTDLCSIFGNALDNAIEHVIMIPEAEKRLIHLTVSAKKSFVFIKIENYCEDKIQKNENDLITTTKADRQNHGFGLKSIRTVVEKYNGSVDFGVDQNWFELKILLPRVM | not soluble
14 | MGSDKIHHHHHHMQALQTFNFEELPVRTLEVDGEPYFIGKDVADILGYANGRDALSKHVDEDDKKVLTSRNTTLENLPNRGLTAVNESGLYSLIFSSKLESAKRFKRWVTSDVLPAIRKYGIYATDNVIEQTLKDPDYIITVLTEYKKEKEQNLLLQQEIGELKPKADYVDEILKSTGTLATTQIAADYGISAQKLNKLLHEARLQRKVNKQWVLYSEHMGKSYTDSDTITIVRSDGREDTVLQTRWTQKGRLKIHEIMTEFGYEANLGGA | not soluble
15 | MRGSHHHHHHTDPALRASVRLVLAKGREKSLLRRHPWVFSGAVARMEGKASLGETIDIVDHQGKWLARGAYSPASQIRARVWTFDPSESIDIAFFSRRLQQAQKWRDWLAQKDGLDSYRLIAGESDGLPGITIDRFGNFLVLQLLSAGAEYQRAALISALQTLYPECSIYDRSDVAVRKKEGMELTQGPVTGELPPALLPIEEHGMKLLVDIQHGHKTGYYLDQRDSRLATRRYVENKRVLNCFSYTGGFAVSALMGGCSQVVSVDTSQEALDIARQNVELNKLDLSKAEFVRDDVFKLLRTYRDRGEKFDVIVMDPPKFVENKSQLMGACRGYKDINMLAIQLLNEGGILLTFSCSGLMTSDLFQKIIADAAIDAGRDVQFIEQFRQAADHPVIATYPEGLYLKGFACRVMGLCGR | soluble
16 | MYKAVVFDFDGTVIDTEKHLFDLINTHLKIHQVAPISLEFYKQFIGGEATELHTYLEDAIGFKNKEKIYDQYYQTSVELPVNSTIIQLMQYLKKRHIPMAITTSSYKKNIYPIFKQLGLDTYIDVVVGRENVDSVQPNPEIYLKAVQELNYNPTTCLAIEDSVNGATAAMLAGLDVVVNTNIITKDQDFSTVQCVGQDMEFEDIKNSLFKE | not soluble
17 | MGSDKIHHHHHHMFIINELNKIVNEEVISFHMPGHKKGQVYKKLGYKDILKNLYKMDTTEILGTDNLHFPEGIIKNSQKKASRVFKSDYTCYLVNGSSCGIQSAIMSVCSPKSKIITNRDCHQSVINGCILGDIDIEYVPCEISEETNVLKGISISNVIDIIDKNLDAKAVLLTYPTYYGMTYDLEYICNYAHSKKMVVIVDEAHGAHLGLSERLPKTALEQGADIVVQSTHKTLPAFTQSSMIHIQGDRVDIDKILNMLRITESSSPSYLLLSSLELAVDIYENKGKELMEELLNNIITFKNKVDSNINIYDTNDKTKIFISSKNMGLTGYELENILRNKYNIQVELSNYYGVLLICTIGNTAEDFSSLETALNNVVKEDFKFEKLENKKYPVVIPKKILTPREAFYKTKKSVKIYDSIGKVCGECIVPYPPGISVISPGEVISKEIIDYLMFCHSKGMIVSGLKDVDLNFIQVIDLEDI | not soluble
18 | MSDPDLELASRREIYQRIADTPGVHFRALLDELKYAQGTLQYQLRWLADKGLIDVSDDGKYTRYYPAAEFDEADRTVMNALRREYSRRILAHLLTDSPLSTTELSERLDKAQSTVSWHLSKLAEADLVTKERDGRSVVYEVSDPDRVKYLYTVHRRSFTDKVVDRILGLWDSY | not soluble
19 | MFQIGEALMGQGSELAHVDLMIGDKGGPVGQAFANGLTQLSAGHTPLLSVIRPNLPPKPSTLIIPKVTVKNMDQAARIFGPAQSAVAKAVADSVEEGVIPKDQVEDLVIVASVFIHPEAQDYNKIYRYNYGATKLAIKRALEGFPDIDTVLEESNKSTHAIMGFKVTRLWDPPYLQIAFDNPNLEFVLSAISEIPKSDHVIIEAGTPLIKRYGTDVISKIRQVRPDAFIVADLKTLDTGNLEARMVADAAGDAIVVSALAPISTIDKLIEEAHKTGIYAVMDTLNQQDPISVLKQLKVMPDVIELHRGIDIEGTEHAWGNIGEIKKIAPKALVAVAGGVRLDKVPVALSQGADILVVGRAITNAKDVREMAEQFINSLNKPEIDQFRVMTDF | not soluble
20 | MSLKRFVAEKMDNQDHWDLNIAPLTNKHIAIVGAGPAGAQAAIELRRQGHEVTIYEKLDVYGGMMRVGIPEYRLPRDVIDFEYSYLAMLGIKTQFGVEIGKDISFDTLRSEHDAVILAHGAHVGSIIPLPGHDNDGVFSAVEYLKEISETRQFPRACKRVMVIGGGDVAMDCARSSWRIGASDVYQCSLESLESLPASQIEIDESLEEGVEFNAGWGPVAIEHENGKVTGITIKKVLSIFDEQGNFAPQYSEESKTISVDTVVFATGQIVADITDGALEQTRGGRYVVDKQTLASSLEDVFVAGDACGGNIVIEAMALGRKAAMSVERFLTARPLTEDRDFEQEYSYSSRLDVPLPKGTVDTPRLHGELRDAEERKQDFAQVDLGFTEEQIKQEASRCLQCSCKLCMTECIMMNDFSDCPKTIFSDFVNNKSMDPLLAYSCNACDQCTIVCPKDFPMKEMFLGARTDFVKANNGESPMPGHKAINMHQKLGFSKIFTMAKRAVSTKEGHHHHHH | soluble
21 | SKFDKLNKAYEQIKSDYYQKTDDDKLVDGAIKGMIQSLDDPYSTYMDQEQAKSFDETISASFEGIGAQVEEKDGEILIVSPIKGSPAEKAGIKPRDQIIKVNGKSVKGMNVNEAVALIRGKKGTKVKLELNRAGVGNIDLSIKRDTIPVETVYSEMKDNNIGEIQITSFSETTAKELTDAIDSLEKKGAKGYILDLRGNPGGLMEQAITMSNLFIDKGKNIMQVEYKNGSKEVMKAEKERKVTKPTVVLVNDGTASAAEIMAAALHESSNVPLIGETTFGKGTVQTAKEYDDGSTVKLTVAKWLTADGEWIHKKGIKPQVKAELPDYAKLPYLDADKTYKSGDTGTNVKVAQKMLKALGYKVKVNSMYDQDFVSVVKQFQKKEKLNETGILTGDTTTKLMIELQKKLSDNDTQMEKAIETLKK | not soluble
